From the supplement of paper PMC9170038

The sequences below were run on K4 kissing-loop RNA reporter (assay: apparent KD of K4 kissing-loop reporter; higher = weaker reporter binding). Conditions: Eterna round: R107; input ligand: tryptophan 2.4 mM.
Procedure: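 RNA-MaP round R107: designed RNA switches with theophylline, tryptophan, arginine or FMN aptamers are transcribed on-chip within common flanks. They are titrated with a labelled K4 kissing-loop RNA reporter in RNA-MaP buffer (100 mM Tris pH 7.5, 80 mM KCl, 4 mM MgCl2), without ligand or with the indicated ligand. Median apparent KD per design.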
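Further: bound reporter read as fluorescence of individual clusters on recovered sequencing chips by microscopy, with normalized cluster intensities fitted with a binding model.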

Sequence | apparent KD of K4 kissing-loop reporter
UGUUAUGUAUCAGGAUAUUAGUGAUGUUUGUUGAUGUUAGUGAUGUUGAUAUUUGUUUUAUGUAUUUAAGAAGGGAUUGAGAUGU [ooilmullin] | 0.0414 µM
UUUAAAUAUAGUGAUGUUAUAUAACAAUGACGAGGACCGGUACGGCCGCCACUCGAGAGAGAUAAUGGUCAUACAAAUGUAUGUC [AstrosSSTryA#7] | 0.564 µM
UUUUGGUACUGAGGAUAUUCGACGAAAUAUAGUGAUGUUAUAUAAGGAGGAGGAGGGUGGGAGGAAGGAGAAGGCAGAAGAGGAG [#06 K4 FMN B Exclusion] | 0.185 µM
GAUGCCAUGAUCCUCCUGGUAUCGGGAGAUACCAGCGUGCUGACACGCCCUUGGCAGCUCCAUUCGAGAGUGAUGUUGUCGAGAA [KL-SSTheo-A8 #analogue] | 0.287 µM
GGAUAGGACGGAGGAUAUGGUAGUGAUGUUACCAAACUGGUUAAACAUGUCAGAAAACUGGCAUGACCAGAAGGCUGUCCUAUCG [FmnBX 27 G10] | 0.0766 µM
GGCCGCAAGGCGAGCGCUCCCACUCCGGAAGGAGCGCCCGGAAGGGCAGGUAGGUCGCCGGAGUGAUGUUCCGGUGGAGGGCUCG [#2 Exclusion - Arginine A Attempt #18 (Inspired by Omei)] | 0.469 µM
UAGGAGUGAUGUUCCAUAUGUAAGGCCGAAGGAGCGGCAUUAUAGCCAGGUAGGUCGCGGCAGUACGUACCAGUGAUGUUGGAAA [KL-SSArg-A5] | 0.116 µM
CCGCUACCCUCAGGAUAUUAAUAUGGAGUGAUGUUCUAUGUCCGAUGGCGGAAACGCCAUCGGGAAUAAGAAGGGAGGGUAGCGG | 0.329 µM
AGCCGAAAGGCGAGUGCUGUCACUCCGGAAGGAGCGGCGAAAACGCCAGGUAGGUCGCCGGAGUGAUGUUCCGGUGCAGCACUCA [Omei KL Arginine A Exc B v2] | 0.492 µM
AGCAAUAUCACGGCCGCCACUGAAUAUUGUUUUUAUAUUUAGAAAUCUUGCCAGUGAUGUUGGUUCAGGACCGGGUGAGUUAAUA [JR_SSTryptoB_Sub005] | 0.401 µM
GGGCGCGGCGCGGCCGCCACUGCGCCUGGGUGCUCGCCGAGUGAUGUUCGUCGGCGGUUGGGUGGCAGGACCGGGUGCCGGCCCG [BDazzled - #17 SS Tryptophan B] | 0.457 µM
AUUACAUCUGAAAAGCUAGUGAUGUUAGCUCGAGGACCGGUACGGCCGCCACUCGCAUAGCGAGGCCAAGUCGCGGUUAACGGAG [theeternabot_exclusion_KL_Trp_A_4] | 0.0833 µM
UGAUACCAGACUGAUACCAGCGAGUGAUGUUCGCUGAAAUCAGGGUCAAAGACCCUGUCUCGCCCUUGGCAGCAGUCUGGUAUCU [TheoBX 20 #SwitchBubble #StaticStem] | 0.128 µM
UGGAUAUAGUGAUGUUAUAUAGAGAUGGAUACCAGCUAAGAGAAUAGCCCUUGGCAGCCGAAAGAAGUAUCAUUAGAGAAGAAUG [ExTheophyl.Ae] | 0.212 µM
UGACAUUGCUCAGAUACCAGACAUGAGCAUCAGCCAUGUGCCAAAACGUACUAAAUAAAUGUCCCUUGGCAGCUGAGCAAUGUCU [TheoBX 13] | 0.0613 µM
CUUGAUGUAGCGGCCGCCACUCUAGAUCCGCAUCGGAUGAGGUACUUGAAGUGAUGUUUUGAGGUGAGGACCGGGCUCUAAAGAA [theeternabot_sameState_KL_Trp_B_16] | 0.419 µM
AAAAUAAACCAGUGAUGUUGGUGUCCAGAUACCAGCGAUAAAAUUCGCCCUUGGCAGCUGUGGACGUACAAAAUAAGUACGUCCU [MatMod 3 - Jieux - Same State - Theophylline A] | 0.674 µM
CCGUAUGUCCACUAUUGAGUGAUGUUCAAGCGAGGACCGGUACGGCCGCCACUCGCGUUACCCACCACGUGUCGCCGCACUUACC [theeternabot_exclusion_KL_Trp_A_42] | 0.37 µM
CCGGCCCAGCCGGAUACCAGUGCGCCGCAGGGAACGGCGGGCCCAGAGUGAUGUUCGGGACACCCUUGGCAGCCGCCUGGGUCCC [#2 Same State - Theophylline B Attempt #30 (HarryS)] | 0.435 µM
GCUCAUCCGGCAGGAUAUAGGCAGGUAGAGUGAUGUUCGAACUGCAGUUAUCCAUCCUUCUACCUACUAGAAGGGCCGGAUGAGC | 0.292 µM
GACGUGCGAGAGACCGCUCUACCUUGAGAUCGAGGACCGGUACGGCCGCCACUCGGUGUUUAACGUCGAUCCCAGUGAUGUUGGA [theeternabot_sameState_KL_Trp_A_21] | 0.234 µM
GCCGUACGCAUGGAUACCAGAGAUGUUAAUCUCGAUGCCAGUGAUGUUGGCUUUAGCAUACUCCCUUGGCAGCCAUGCGUACGGC | 0.267 µM
CGAGAAAGAGCGACUGGCGAUCUGUCUGAAGGAGCGGGUGCUAGCCCAGGUAGGUCGCAGACUUUGACGCCAGUGAUGUUGGCGG [Titidiisxe] | 0.178 µM
UAUAGAGUGACGGCCGCCACUAUUGUGAUUUAAUUGUUAGAGUGAUGUUUUGUUGUUUGAUUUUGUAGGACCGGGUUAUAUGUUA [ecewzmullin] | 0.802 µM
UGCGCUGUGUCCUAAAAUGUCCUCCGGGAUACCAGAGUCUUUUUAUUCCCUUGGCAGCUUGAGUGAUGUUUGAUGCCGUUCUUGU [xxbxymullin] | 0.607 µM
UCGCGUCUGUGAGGAUAUCAGAACAGAGUGAUGUUCUGUCAACGCCCAGUGAUGUUGGAUGCGAUCUGAGAAGGCACUGGGCGCA [Same State FMN B GF 9] | 1.16 µM
CUUGUACAUGCCGAGGUAGGUGCGGGUUAGCGAGGACCGGUACGGCCGCCACUCGCCAAGUGAUGUUUGGUCCUUUGGAUCGGCA | 0.183 µM
